Assay results reported in patent US20210214410A1 (Stanford University, published 2021).
Where a chain is given by its changes, count along the chain named. Names and notes keep the numbering of the source.

T1: human interleukin 13 receptor alpha 2 (IL-13Rα2), biotinylated (human, UniProt Q14627 27-343, limits assumed, biotinylated (site not stated))
T1 construct: The methods give construct limits only for IL-13Rα1 and IL-4Rα1; For IL-13Rα2 they say only that the biotinylated receptor was captured on the SA chip; also called IL13RA2; CD213a2
T1 sequence (looked up): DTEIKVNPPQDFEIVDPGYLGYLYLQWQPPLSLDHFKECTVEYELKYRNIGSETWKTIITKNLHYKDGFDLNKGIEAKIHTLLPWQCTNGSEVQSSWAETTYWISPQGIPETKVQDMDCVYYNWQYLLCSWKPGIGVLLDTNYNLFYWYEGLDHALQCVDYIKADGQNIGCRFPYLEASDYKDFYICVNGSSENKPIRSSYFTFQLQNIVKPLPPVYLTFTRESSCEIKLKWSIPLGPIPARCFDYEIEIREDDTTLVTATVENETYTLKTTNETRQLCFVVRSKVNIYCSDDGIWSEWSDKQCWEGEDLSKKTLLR

B1: A7 (ligand)
cytokine: PGPVPPSTAIRELIEELINITQNQKAPLCNGSMVWSINLTAGMYCAALESLINVSGCSAIEKTQRMLSGFCPHKVSAGQFSSLHVRGSKIEVAQFVKDLLHHLRALFREGQFN
notes: also called IL-13 variant A7 (L10I, V18I, D87G, T88S, L101H, K104R, K105A)
B2: A5 (ligand)
cytokine: B1 cytokine with I10L, R11I, R86K, F107M
notes: also called IL-13 variant A5 (R11I, V18I, R86K, D87G, T88S, L101H, K104R, K105A, F107M)
B3: A6 (ligand)
cytokine: B1 cytokine with I18L, R86M, G87K
notes: also called IL-13 variant A6 (L10I, V18L, R86M, D87K, T88S, L101H, K104R, K105A)
B4: A8 (ligand)
cytokine: B1 cytokine with G87S, K89R, A105T
notes: also called IL-13 variant A8 (L10I, V18I, D87S, T88S, K89R, L101H, K104R, K105T)
B5: A11 (ligand)
cytokine: B1 cytokine with I10V, G87S, H101F, A105T
notes: also called IL-13 variant A11 (L10V, V18I, D87S, T88S, L101F, K104R, K105T)
B6: B2 (ligand)
cytokine: B1 cytokine with I10L, R86T, H101Y
notes: also called IL-13 variant B2 (V18I, R86T, D87G, T88S, L101Y, K104R, K105A)
B7: B6 (ligand)
cytokine: B1 cytokine with I10T, H101Y, A105T
notes: the sheet prints K at position 89 (same as wild type); also called IL-13 variant B6 (L10T, V18I, D87G, T88S, L101Y, K104R, K105T)
B8: C2 (ligand)
cytokine: B1 cytokine with I10D, R11I, R86K, G87K, S88T, K89R, H101L, R104K, A105K, R108K
notes: also called IL-13 variant C2 (L10D, R11I, V18I, R86K, D87K, K89R, R108K)
B9: C3 (ligand)
cytokine: B1 cytokine with I10A, I18V, R86T, S88K, K89R, H101N, R108K
notes: also called IL-13 variant C3 (L10A, R86T, D87G, T88K, K89R, L101N, K104R, K105A, R108K)
B10: C7 (ligand)
cytokine: B1 cytokine with I10L, R11S, I14M, I18V, G87D, H101N, R104K, R108K
notes: also called IL-13 variant C7 (R11S, I14M, T88S, L101N, K105A, R108K)
B11: C9 (ligand)
cytokine: B1 cytokine with I10H, R11L, R86K, G87E, S88T, K89R, H101N, R104K, A105T, R108K
notes: also called IL-13 variant C9 (L10H, R11L, V18I, R86K, D87E, K89R, L101N, K105T, R108K)
B12: C10 (ligand)
cytokine: B1 cytokine with I10H, R11L, R86M, G87D, S88T, K89R, H101L, R104K, A105K, R108K
notes: also called IL-13 variant C10 (L10H, R11L, V18I, R86M, K89R, R108K)
B13: C12 (ligand)
cytokine: B1 cytokine with I10H, I18V, R86M, G87D, K89R, H101N, R108K
notes: also called IL-13 variant C12 (L10H, R86M, T88S, K89R, L101N, K104R, K105A, R108K)
B14: IL-13dn (ligand)
cytokine: B1 cytokine with I10V, E12A, R65D, G87S, H101F, A105T
notes: also called IL13dn (L10V, E12A, V18I, R65D, D87S, T88S, L101F, K104R, K105T)
B15: IL-13 variant B4 (R11S, V18I, R86K, D87G, T88S, K89M, L101Y, K104R, K105T) (ligand)
chain: PGPVPPSTALSELIEELINITQNQKAPLCNGSMVWSINPTAGMYCAALESLINVSGCSAIEKTQRMLSGFCPHKVAAGQFSSLHDKGSMIEVAQFVKDLLYHLRTLFREGQFNHHHHHH
notes: also called polypeptide B4
B16: IL-13 variant C4 (L10V, K89R, L101N, K105E, R108T) (ligand)
chain: PGPVPPSTAVRELIEELVNITQNQKAPLCNGSMVWSINLTAGMYCAALESLINVSGCSAIEKTQRMLSGFCPHKVSAGQFSSLHVRDTRIEVAQFVKDLLNHLKELFTEGQFNHHHHHH
notes: the first is used here; also called polypeptide C4
B17: IL-13 variant C11 (IL-13Rα2-selective IL-13 superkine; L10H, R86T, D87G, T88R, R108K) (ligand)
chain: B16 chain with V10H, R86T, D87G, T88R, R89K, N101L, E105K, T108K
notes: the first is used here; Made in insect Hi5 cells; also called polypeptide C11
B18: IL-13 variant D7 (IL-13Rα2-selective IL-13 superkine; L10A, V18F, R86K, D87K, K89R, L101I, K104R, R108K) (ligand)
chain: B16 chain with V10A, V18F, Q64K, S81P, R86K, D87K, N101I, K104R, E105K, T108K
notes: the first is used here; also called polypeptide D7

Key:
[1] = molecular target: human interleukin 13 receptor alpha 1 (IL-13Rα1), biotinylated ectodomain (human) (UniProt P78552); experiment: SPR (Biacore T100), biotinylated receptor on SA chip, 1:1 kinetic fit
[2] = molecular target: human interleukin 13 receptor alpha 1 (IL-13Rα1), biotinylated ectodomain (human) (UniProt P78552); experiment: SPR, kinetic fit
[3] = molecular target: human interleukin 13 receptor alpha 2 (IL-13Rα2), biotinylated (human) (UniProt Q14627); experiment: flow cytometry, PE-labelled mouse IgG1, live SKOV3 cells
[4] = molecular target: human interleukin 13 receptor alpha 2 (IL-13Rα2), biotinylated (human) (UniProt Q14627); experiment: flow cytometry, PE-labelled mouse IgG1, live U87 cells
[5] = molecular target: T1, human interleukin 13 receptor alpha 2 …; experiment: SPR (Biacore T100), biotinylated receptor on SA chip, 1:1 kinetic fit
Procedure: (§1) Surface Plasmon Resonance. SPR experiments were conducted on a Biacore T100 instrument. Experiments used a Biacore SA sensor chip (GE Healthcare). Biotinylated IL-13Rα1 and IL-13Rα2 receptors were captured at a low density (100-200 RU) and kinetic runs were conducted at 40 μL/min. An unrelated biotinylated protein was immobilized as a reference surface for the SA sensor chip with matching RU to the experimental surface. All data was analyzed using the Biacore T100 evaluation software version 2.0 with a 1:1 Langmuir binding model. Serial dilutions of unbiotinylated IL-13 variants in the running buffer [1×HBS-P (GE Healthcare)+0.5% BSA] were flowed over the chip and IL-13Rα1/IL-13Rα2 were regenerated by using one 60 second injections of 7 mM glycine (pH 3.0).

[6] = molecular target: T1, human interleukin 13 receptor alpha 2 …; experiment: SPR (Biacore T100), biotinylated receptor on SA chip, equilibrium KD
Procedure: as §1

[7] = molecular target: human interleukin 13 receptor alpha 1 (IL-13Rα1), biotinylated ectodomain (human) (UniProt P78552); experiment: as above
[8] = molecular target: T1, human interleukin 13 receptor alpha 2 …; experiment: SPR, kinetic fit
Procedure: as §1

Molecule | Kd [1] [nM] | koff [1] [s⁻¹] | kon [1] [M⁻¹ s⁻¹] | Kd [5] [nM] | koff [5] [s⁻¹] | kon [5] [M⁻¹ s⁻¹] | Kd [7] [nM] | further results
wild-type human IL-13 (from UniProt P35225 34-146) (ligand) | 4.38 | 0.022 | 5.21e+06 | – | – | – | – | Kd [2]: 4.38 nM; koff [2]: 0.022 s⁻¹; kon [2]: 5.21e+06 M⁻¹ s⁻¹
Isotype Control (antibody) | – | – | – | – | – | – | – | % of cells in the PE gate [3]: 0.042%; % of cells in the PE gate [4]: 0.035%
B1 | 1.18 | 0.0034 | 2.9e+06 | 0.218 | 0.0041 | 1.8e+07 | – | –
B2 | 2.94 | 0.0082 | 2.8e+06 | – | – | – | – | Kd [6]: 50 nM
B3 | 1.9 | 0.0033 | 1.77e+06 | 0.267 | 0.0028 | 1.07e+07 | – | –
B4 | 2.06 | 0.0033 | 1.64e+06 | 0.263 | 0.0026 | 1.01e+07 | – | –
B5 | 0.084 | 0.0013 | 1.64e+07 | 0.391 | 0.006 | 1.62e+07 | – | –
B6 | 0.275 | 0.0017 | 6.3e+06 | 1.5 | 0.01 | 7.8e+06 | – | –
B7 | 5.9 | 0.0082 | 1.4e+06 | – | – | – | – | Kd [6]: 53 nM
B8 | – | – | – | 0.025 | 0.00015 | 6.6e+06 | 4000 | –
B9 | – | – | – | 0.379 | 0.002 | 6e+06 | 16000 | –
B10 | – | – | – | 0.272 | 0.00057 | 2.1e+06 | 35000 | –
B11 | – | – | – | 0.259 | 0.000529 | 2.03e+06 | 31000 | –
B12 | – | – | – | 5 | 0.0061 | 1.19e+06 | 264 | –
B13 | – | – | – | 0.053 | 0.000404 | 7.61e+06 | 15000 | –
B14 | – | – | – | – | – | – | – | Kd [2]: 0.084 nM; koff [2]: 0.0013 s⁻¹; kon [2]: 1.64e+07 M⁻¹ s⁻¹; Kd [8]: 0.391 nM; koff [8]: 0.006 s⁻¹; kon [8]: 1.62e+07 M⁻¹ s⁻¹
B15 | 18 | 0.024 | 1.36e+06 | – | – | – | – | Kd [6]: 108 nM
B16 | – | – | – | 0.393 | 0.000764 | 1.94e+06 | 36000 | –
B17 | – | – | – | 0.0001 | 9.18e-07 | 6.41e+06 | 1600 | –
B18 | – | – | – | 0.003 | 5.37e-05 | 1.77e+07 | 4100 | –
